For assay [1], the target named is GFRα-1. The assay can be described thus: solid-phase assay (ELISA): RAP-GDNF concentration varied on GFRalpha-1, OD 450 nm; per paragraph 304 GFRalpha-1 coated on the plate and bound protein detected with anti-GDNF mAb. In general terms: In an ELISA, binding on a coated surface is turned into a signal by an enzyme label.
Assay [2] has as its target GFRα-1. Kind of assay: solid-phase binding assay (FIG. 11).
The target in a further assay is LRP2 CR3435 (human) (UniProt P98164). The assay can be described thus: solid-phase assay: CR protein coated on the plate, RAP-IDU titrated, bound iduronidase activity read as rfu.
The next assay concerns the target LRP1 CR3-5 (human). Kind of assay: solid-phase assay, coated CR protein, RAP-IDU detected by iduronidase activity.
The target of assay [3] is LRP2 CR89 Y1042W V1047D (human) (UniProt P98164). The assay can be described thus: solid-phase assay, coated CR protein, anti-RAP, OD450.
Sequence of LRP2 CR89 Y1042W V1047D (human) (P98164 1022-1105 Y1043W/V1048D limits assumed): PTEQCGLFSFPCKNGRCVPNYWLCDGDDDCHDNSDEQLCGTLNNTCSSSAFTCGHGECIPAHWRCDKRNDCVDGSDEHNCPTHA

Sequence of LRP1 CR3-5 (human) (Q07954 852-973): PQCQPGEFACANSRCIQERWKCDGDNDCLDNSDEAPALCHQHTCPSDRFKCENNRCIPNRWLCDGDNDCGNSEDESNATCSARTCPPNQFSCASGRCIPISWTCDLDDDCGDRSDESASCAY

For “RAP-GDNF fusion protein (from UniProt P39905 78-211)”, the EC50 (read off the curve) (as a rule, the concentration that produces a half-maximal response) with GFRα-1 [1] was 2 ng/mL. Further, the Kd (commonly the constant that tells how readily two partners part at equilibrium) with GFRα-1 [2] came to 5 ng/mL.

As to “RAP-IDU (fusion of RAP and human α-L-iduronidase) (from UniProt P35475 28-653)”, the results for the Kd with LRP2 CR3435 (human) and in the assay with LRP1 CR3-5 (human) were 722 nM and 3 nM, respectively.

For the substance “wild-type RAP d3 (from UniProt P30533 235-353) (ligand)”, the % max bind in assay [3] is 11%.

The record behind these values is patent publication US20090269346A1.
